{"source": "patent US20040157268", "molecular_target": "β2 adrenergic receptor modified to have a Flag epitope at the amino terminus and a TEV protease site within the third intracellular loop between residues 254 and 260 of the native protein", "data": [{"protein": "Tobacco Etch Virus (TEV) protease, recombinant (protein) GESLFKGPRDYNPISSTICHLTNESDGHTTSLYGIGFGPFIITNKHLFRRNNGTLLVQSLHGVFKVKNTTTLQQHLIDGRDMIIIRMPKDFPPFPQKLKFREPQREERICLVTTNFQTKSMSSMVSDTSCTFPSSDGIFWKHWIQTKDGQCGSPLVSTRDGFIVGIHSASNFTNTNNYFTSVPKNFMELLTNQEAQQWVSGWRLNADSVLWGGHKVFMSKPEEPFQPVKEATQLMNELVYSQ", "values": [{"measurement": "Ratio of TEV-cleaved to uncleaved receptor (axis 'cut/uncut'), from the blot of FIG. 11B", "value": "Two bars, no error bars and no printed values. The 'Control' bar ends just above the 0.3 tick. The 'Isoproterenol' bar ends between the 1.2 and 1.5 ticks, several times higher than the control."}, {"measurement": "TEV cleavage of the receptor (Western blot; ratio of cleaved to uncleaved receptor), with and without the agonist isoproterenol", "value": "TEV cleavage of the 12 adrenergic receptor was enhanced in the presence of isoproterenol"}, {"measurement": "TEV cleavage of the receptor's third-loop TEV site, seen as the lower (cleaved, N-terminal) band on a Western blot probed with M1 antibody", "value": "No lower band without TEV (TEV-/ISO-). Very faint lower band with TEV alone (TEV+/ISO-). Strong lower band and a weaker upper band with TEV plus isoproterenol (TEV+/ISO+)."}]}]}
